Results: IntAct's records for PubMed 15086341

B1: Lysine-specific demethylase hairless (Mus musculus), Q61645 (parent)
chain: MESMPSFLKDTPAWEKTAPVNGIVGQEPGTSPQDGLRHGALCLGEPAPFWRGVLSTPDSWLPPGFLQGPKDTLSLVEGEGPRNGERKGSWLGGKEGLRWKEAMLAHPLAFCGPACPPRYGPLIPEHSGGHPKSDPVAFRPLHCPFLLETKILERAPFWVPTCLPPYLMSSLPPERPYDWPLAPNPWVYSGSQPKVPSAFGLGSKGFYHKDPNILRPAKEPLAESGMLGLAPGGHLQQACESEGPSLHQRDGETGAGRQQNLCPVFLGYPDTVPRAPWPSCPPGLVHSLGNIWAGPGSNSLGYQLGPPATPRCPSPGPPTPPGGCCSSHLPAREGDLGPCRKCQDSPEGGSSGPGESSEERNKADSRACPPSHHTKLKKTWLTRHSEQFECPGGCSGKEESPATGLRALKRAGSPEVQGASRGPAPKRPSHPFPGTGRQGARAWQETPETIIGSKAEAEQQEEQRGPRDGRIRLQESRLVDTSCQHHLAGVTQCQSCVQAAGEVGVLTGHSQKSRRSPLEEKQLEEEDSSATSEEGGGGPGPEASLNKGLAKHLLSGLGDRLCRLLRKEREALAWAQREGQGPAMTEDSPGIPHCCSRCHHGLFNTHWRCSHCSHRLCVACGRIAGAGKNREKTGSQEQHTDDCAQEAGHAACSLILTQFVSSQALAELSTVMHQVWAKFDIRGHCFCQVDARVWAPGDGGQQKEPTEKTPPTPQPSCNGDSNRTKDIKEETPDSTESPAEDGAGRSPLPCPSLCELLASTAVKLCLGHDRIHMAFAPVTPALPSDDRITNILDSIIAQVVERKIQEKALGPGLRAGSGLRKGLSLPLSPVRTRLSPPGALLWLQEPRPKHGFHLFQEHWRQGQPVLVSGIQKTLRLSLWGMEALGTLGGQVQTLTALGPPQPTNLDSTAFWEGFSHPETRPKLDEGSVLLLHRTLGDKDASRVQNLASSLPLPEYCAHQGKLNLASYLPLGLTLHPLEPQLWAAYGVNSHRGHLGTKNLCVEVSDLISILVHAEAQLPPWYRAQKDFLSGLDGEGLWSPGSQTSTVWHVFRAQDAQRIRRFLQMVCPAGAGTLEPGAPGSCYLDAGLRRRLREEWGVSCWTLLQAPGEAVLVPAGAPHQVQGLVSTISVTQHFLSPETSALSAQLYHQGASLPPDHRMLYAQMDRAVFQAVKAAVGALQEAK

Variants of: B1
Conditions: with Thrb

Row | Variant | effect of a mutation on the interaction
1 | D1005N | with no effect
